# Data: patent US20210246200A1 (UNIVERSIT T Z RICH, published 2021)
# B1: 108929 (antibody, human IgG1, kappa, N297A, V domains shown)
# VH: EVQLVQSGAEVKKPGESLKISCKGSGYAFSNYLIEWVRQMPGKGLEWMGVINPGSGGTYYNEKFKGQVTISADKSISTAYLQWSSLKASDTAMYYCARWRGEGYYAYFDVWGQGTTVTVSS
# VL: AIRLTQSPSSFSASTGDRVTITCKASQSVDYQGDSYMNWYQQKPGKAPKLLIYTASNLESGVPSRFSGSGSGTDFTLTISSLQSEDFATYYCQQSNEDPYTFGGGTKVEIKR
# B2: Antibody No: 34 (antibody, human IgG1, kappa, N297A, V domains shown)
# VH: EVQLVQSGAEVKKPGESLKISCKGSGYAFSNYLIEWVRQMPGKGLEWMGVINPGSGGTYYNEKFKGQVTISADKSISTAYLQWSSLKASDTAMYYCARWRGEGYYAYYDVWGQGTTVTVSS
# VL: AIRLTQSPSSFSASTGDRVTITCKASQSVDYQGDSYMNWYQQKPGKAPKLLIYTASNLESGVPSRFSGSGSGTDFTLTISSLQSEDFATYYCQQSNEDPYTFGGGTKVEIKR
# notes: VK A50T; HEK293F supernatant
# B3: Antibody No: 33 (antibody, human IgG1, kappa, N297A, V domains shown)
# VH: EVQLVQSGAEVKKPGESLKISCKGSGYAFSNYLIEWVRQMPGKGLEWMGVINPGSGGTYYNEKFKGQVTISADKSISTAYLQWSSLKASDTAMYYCARWRGEGYYAYYDVWGQGTTVTVSS
# VL: AIRLTQSPSSFSASTGDRVTITCKASQSVDYQGDSYMNWYQQKPGKAPKLLIYSASNLESGVPSRFSGSGSGTDFTLTISSLQSEDFATYYCQQSNEDPYTFGGGTKVEIKR
# notes: VK A50S; HEK293F supernatant
# B4: Antibody No: 35 (antibody, human IgG1, kappa, N297A, V domains shown)
# VH: EVQLVQSGAEVKKPGESLKISCKGSGYAFSNYLIEWVRQMPGKGLEWMGVINPGSGGTYYNEKFKGQVTISADKSISTAYLQWSSLKASDTAMYYCARWRGEGYYAYYDVWGQGTTVTVSS
# VL: AIRLTQSPSSFSASTGDRVTITCKASQSVDYQGDSYLNWYQQKPGKAPKLLIYSASNLESGVPSRFSGSGSGTDFTLTISSLQSEDFATYYCQQSNEDPYTFGGGTKVEIKR
# notes: VK M33L + A50S; HEK293F supernatant
# B5: Antibody No: 30 (antibody, human IgG1, kappa, N297A, V domains shown)
# VH: EVQLVQSGAEVKKPGESLKISCKGSGYAFSNYLIEWVRQMPGKGLEWMGVINPGSGGTYYNEKFKGQVTISADKSISTAYLQWSSLKASDTAMYYCARWRGEGYYAYFDVWGQGTTVTVSS
# VL: AIRLTQSPSSFSASTGDRVTITCKASQSVDYQGDSYLNWYQQKPGKAPKLLIYSASNLESGVPSRFSGSGSGTDFTLTISSLQSEDFATYYCQQSNEDPYTFGGGTKVEIKR
# notes: VH N58Y + T30S; VK M33L + A50S; HEK293F supernatant
# B6: 108930 (antibody, human IgG1, kappa, N297A, V domains shown)
# VH: EVQLVQSGAEVKKPGESLKISCKGSGYAFSNYLIEWVRQMPGKGLEWMGVINPGSGGTYYNEKFKGQVTISADKSISTAYLQWSSLKASDTAMYYCARWRGEGYYAYFDVWGQGTTVTVSS
# VL: AIRLTQSPSSFSASTGDRVTITCKASQSVDYQGDSYLNWYQQKPGKAPKLLIYSASNLESGVPSRFSGSGSGTDFTLTISSLQSEDFATYYCQQSNEDPYTFGGGTKVEIKR
# B7: Antibody No: 28 (antibody, human IgG1, kappa, N297A, V domains shown)
# VH: EVQLVQSGAEVKKPGESLKISCKGSGYAFSNYLIEWVRQMPGKGLEWMGVINPGSGGTYYNEKFKGQVTISADKSISTAYLQWSSLKASDTAMYYCARWRGEGYYAYFDVWGQGTTVTVSS
# VL: AIRLTQSPSSFSASTGDRVTITCKASQSVDYQGDSYMNWYQQKPGKAPKLLIYSASNLESGVPSRFSGSGSGTDFTLTISSLQSEDFATYYCQQSNEDPYTFGGGTKVEIKR
# notes: VH N58Y + T30S; VK A50S; HEK293F supernatant; 108930 is kept apart
# B8: Antibody No: 26 (antibody, human IgG1, kappa, N297A, V domains shown)
# VH: EVQLVQSGAEVKKPGESLKISCKGSGYAFSNYLIEWVRQMPGKGLEWMGVINPGSGGTYYNEKFKGQVTISADKSISTAYLQWSSLKASDTAMYYCARWRGEGYYAYFDVWGQGTTVTVSS
# VL: AIRLTQSPSSFSASTGDRVTITCKASQSVDYQGDSYMNWYQQKPGKAPKLLIYAASNLESGVPSRFSGSGSGTDFTLTISSLQSEDFATYYCQQSNEDPYTFGGGTKVEIKR
# notes: VH N58Y + T30S; VK WT; HEK293F supernatant; 108929 is kept apart
# B9: Antibody No: 31 (antibody, human IgG1, kappa, N297A, V domains shown)
# VH: EVQLVQSGAEVKKPGESLKISCKGSGYAFSNYLIEWVRQMPGKGLEWMGVINPGSGGTYYNEKFKGQVTISADKSISTAYLQWSSLKASDTAMYYCARWRGEGYYAYYDVWGQGTTVTVSS
# VL: AIRLTQSPSSFSASTGDRVTITCKASQSVDYQGDSYMNWYQQKPGKAPKLLIYAASNLESGVPSRFSGSGSGTDFTLTISSLQSEDFATYYCQQSNEDPYTFGGGTKVEIKR
# notes: VK WT; HEK293F supernatant
# B10: Antibody No: 27 (antibody, human IgG1, kappa, N297A, V domains shown)
# VH: EVQLVQSGAEVKKPGESLKISCKGSGYAFSNYLIEWVRQMPGKGLEWMGVINPGSGGTYYNEKFKGQVTISADKSISTAYLQWSSLKASDTAMYYCARWRGEGYYAYFDVWGQGTTVTVSS
# VL: AIRLTQSPSSFSASTGDRVTITCKASQSVDYQGDSYLNWYQQKPGKAPKLLIYAASNLESGVPSRFSGSGSGTDFTLTISSLQSEDFATYYCQQSNEDPYTFGGGTKVEIKR
# notes: VH N58Y + T30S; VK M33L; HEK293F supernatant
# B11: Antibody No: 32 (antibody, human IgG1, kappa, N297A, V domains shown)
# VH: EVQLVQSGAEVKKPGESLKISCKGSGYAFSNYLIEWVRQMPGKGLEWMGVINPGSGGTYYNEKFKGQVTISADKSISTAYLQWSSLKASDTAMYYCARWRGEGYYAYYDVWGQGTTVTVSS
# VL: AIRLTQSPSSFSASTGDRVTITCKASQSVDYQGDSYLNWYQQKPGKAPKLLIYAASNLESGVPSRFSGSGSGTDFTLTISSLQSEDFATYYCQQSNEDPYTFGGGTKVEIKR
# notes: VK M33L; HEK293F supernatant
# B12: Antibody No: 29 (antibody, human IgG1, kappa, N297A, V domains shown)
# VH: EVQLVQSGAEVKKPGESLKISCKGSGYAFSNYLIEWVRQMPGKGLEWMGVINPGSGGTYYNEKFKGQVTISADKSISTAYLQWSSLKASDTAMYYCARWRGEGYYAYFDVWGQGTTVTVSS
# VL: AIRLTQSPSSFSASTGDRVTITCKASQSVDYQGDSYMNWYQQKPGKAPKLLIYTASNLESGVPSRFSGSGSGTDFTLTISSLQSEDFATYYCQQSNEDPYTFGGGTKVEIKR
# notes: VH N58Y + T30S; VK A50T; HEK293F supernatant
# Key:
# [1] = target: T1, Proleukin® (aldesleukin) (human, UniProt P60568 21-153, limits assumed); experiment: ELISA, coated Proleukin, mean of 3 experiments;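 also: binding of anti-human IL-2 antibodies, tested as an 11-point dilution series for 2 hours, to plate-bound IL-2, detected via streptavidin-HRP with absorbance read at 450 nm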
# T1 construct: Variant of human wt IL-2 with C145S (C125S on mature IL-2); also called IL-2 (Proleukin®); human IL-2 (Proleukin)
# T1 sequence (P60568 other isoform, or with tags, fused parts or gaps limits assumed): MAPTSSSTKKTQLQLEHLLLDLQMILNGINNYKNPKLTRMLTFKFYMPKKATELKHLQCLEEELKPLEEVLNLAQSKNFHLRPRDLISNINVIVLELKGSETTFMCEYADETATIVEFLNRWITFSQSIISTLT
# Method: ELISA plates (Corning) were coated with human IL-2 (Proleukin) at 10 μg/mL in PBS overnight at 4° C. The plates were washed 6 times with PBST, then blocked in 1% BSA/PBST for 2 hours. After blocking and washing, the anti-human IL-2 antibodies were added on the plate in an 11-point dilution series in 1% BSA/PBST and incubated for 2 hours. […] The plates were then washed again and incubated with Streptavidin-Horseradish Peroxidase in 1% BSA/PBS for 45 minutes. After washing, the substrate (R&D Systems) was added into the plates and the enzymatic reaction was stopped after 3 minutes by adding Stop Solution. The plates were read by a microplate reader at 450 nm with a wavelength correction set to 540 nm.
# [2] = target: T1, Proleukin® (aldesleukin); experiment: ELISA, coated Proleukin, HEK293F supernatant 1:2
# Method: Subsequently, hIL-2 binding efficiency of the antibodies present in the supernatants was determined using ELISA. In brief, ELISA plates (Maxisorp 96-well black microtiter plate) were coated overnight at 4° C. with 100p/well of Proleukin® (5 μg/ml PBS). ELISA plates were washed once with TBST (1×TBS/0.05% Tween 20) using a plate-washer (BioTek). […] After removal of the blocking buffer, plates were washed once with TBST using the plate washer. Supernatants were diluted 1:2 in blocking buffer and 50 μl transferred to the designated well of the ELISA plate. Each sample was present on three ELISA plates. The three plates were incubated at RT under gentle agitation. […] The other two plates were washed either every hour three times with TBST for 4 hours or washed every hour three times for 12 hours before adding the detection antibody. […] Luminescence signal was measured after 5 minutes incubation in the dark. […] All ELISA values are mean values based on two measurements.
# [3] = target: T1, Proleukin® (aldesleukin); experiment: ELISA, coated Proleukin, serially diluted supernatant
EC50 [1],ELISA value (Normal ELISA) [2],ELISA value (wash 3x every hour for 4 HRS) [2],ELISA value (wash 3x every hour for 12 HRS) [2],EC50 [3],Binder
0.15 nM,,,,,B1
,3860 luminescence signal,3080 luminescence signal,1360 luminescence signal,0.65 nM,B2
,3990 luminescence signal,3570 luminescence signal,1820 luminescence signal,0.67 nM,B3
,4910 luminescence signal,4040 luminescence signal,1790 luminescence signal,0.72 nM,B4
,14900 luminescence signal,14400 luminescence signal,2800 luminescence signal,0.22 nM,B5
0.06 nM,,,,,B6
,18500 luminescence signal,18100 luminescence signal,5870 luminescence signal,0.16 nM,B7
,4030 luminescence signal,4210 luminescence signal,1800 luminescence signal,0.49 nM,B8
,11400 luminescence signal,10300 luminescence signal,3400 luminescence signal,0.39 nM,B9
,7760 luminescence signal,7000 luminescence signal,2770 luminescence signal,0.39 nM,B10
,7190 luminescence signal,6210 luminescence signal,3330 luminescence signal,0.65 nM,B11
,6950 luminescence signal,6850 luminescence signal,2720 luminescence signal,0.24 nM,B12
